Measurements taken from patent US20240366761A1 (LEGEND BIOTECH IRELAND, published 2024).

Biological target: recombinant human TGFβ1 (human, UniProt P01137 279-390)
Test: cell-based or functional assay

recombinant human TGFβ1, sequence (P01137 279-390 limits assumed): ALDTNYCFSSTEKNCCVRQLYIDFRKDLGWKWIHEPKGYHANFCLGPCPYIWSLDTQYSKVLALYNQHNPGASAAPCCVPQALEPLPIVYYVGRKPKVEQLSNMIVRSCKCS

T cell number from day 0 to day 5 after transduction, culture with 20 ng/mL TGFβ1 [fold]	Binder
> 4	TGB23-5 fusion protein (TGFβ receptor and IL-23 receptor fusion protein) (receptor) chain 1: TIPPHVQKSVNNDMIVTDNNGAVKFPQLCKFCDVRFSTCDNQKSCMSNCSITSICEKPQEVCVAVWRKNDENITLETVCHDPKLPYHDFILEDAASPKCIMKEKKKPGETFFMCSCSSDECNDNIIFSEEYNTSNPDLLLVIFQVPQVTSKAFQHDTWNSGLTVASISTGHLTSDNRGDIGLLLGMIVFAVMLSILSLIGIFNRSFRTGIKRRILLLIPKWLYEDIPNMKNSNVVKMLQENSELMNNNSSEQVLYVDPMITEIKEIFIPEHKPTDYKKENTGPLETRDYPQNSLFDNTTVVYIPDLNTGYKPQISNFLPEGSHLSNNNEITSLTLKPPVDSLDSGNNPRLQKHPNFAFSVSSVNSLSNTIFLGELSLILNQGECSSPDIQNSVEEETTMLLENDSPSETIPEQTLLPDEFVSCLGIVNEELPSINTYFPQNILESHFNRISLLEK chain 2: LQCFCHLCTKDNFTCVTDGLCFVSVTETTDKVIHNSMCIAEIDLIPRDRPFVCAPSSKTGSVTTTYCCNQDHCNKIELPTTVKSSPGLGPVELVSDWLIFFASLGSFLSILLVGVLGYLGLNRAARHLCPPLPTPCASSAIEFPGGKETWQWINPVDFQEEASLQEALVVEMSWDKGERTEPLEKTELPEGAPELALDTELSLEDGDRCKAKM
> 4	TGB23-6 fusion protein (TGFβ receptor and IL-23 receptor fusion protein) (receptor) chain 1: LQCFCHLCTKDNFTCVTDGLCFVSVTETTDKVIHNSMCIAEIDLIPRDRPFVCAPSSKTGSVTTTYCCNQDHCNKIELPTTVKSSPGLGPVELVSDWLIFFASLGSFLSILLVGVLGYLGLNRAARHLCPPLPTPCASSAIEFPGGKETWQWINPVDFQEEASLQEALVVEMSWDKGERTEPLEKTELPEGAPELALDTELSLEDGDRCKAKM chain 2: TIPPHVQKSVNNDMIVTDNNGAVKFPQLCKFCDVRFSTCDNQKSCMSNCSITSICEKPQEVCVAVWRKNDENITLETVCHDPKLPYHDFILEDAASPKCIMKEKKKPGETFFMCSCSSDECNDNIIFSEEYNTSNPDLLLVIFQVPQVTSKAFQHDTWNSGLTVASISTGHLTSDNRGDIGLLLGMIVFAVMLSILSLIGIFNRSFRTGIKRRILLLIPKWLYEDIPNMKNSNVVKMLQENSELMNNNSSEQVLYVDPMITEIKEIFIPEHKPTDYKKENTGPLETRDYPQNSLFDNTTVVYIPDLNTGYKPQISNFLPEGSHLSNNNEITSLTLKPPVDSLDSGNNPRLQKHPNFAFSVSSVNSLSNTIFLGELSLILNQGECSSPDIQNSVEEETTMLLENDSPSETIPEQTLLPDEFVSCLGIVNEELPSINTYFPQNILESHFNRISLLEK

Further lines, the binder ahead of its results:

Binder	T cell number from day 0 to day 5 after transduction, culture with 20 ng/mL TGFβ1 [fold]
TGB23-2 fusion protein (TGFβ receptor and IL-23 receptor fusion protein) (receptor) chain 1: TIPPHVQKSVNNDMIVTDNNGAVKFPQLCKFCDVRFSTCDNQKSCMSNCSITSICEKPQEVCVAVWRKNDENITLETVCHDPKLPYHDFILEDAASPKCIMKEKKKPGETFFMCSCSSDECNDNIIFSEEYNTSNPDLLLVIFQVTGISLLPPLGVAISVIIIFYCYRVNRQNRSFRTGIKRRILLLIPKWLYEDIPNMKNSNVVKMLQENSELMNNNSSEQVLYVDPMITEIKEIFIPEHKPTDYKKENTGPLETRDYPQNSLFDNTTVVYIPDLNTGYKPQISNFLPEGSHLSNNNEITSLTLKPPVDSLDSGNNPRLQKHPNFAFSVSSVNSLSNTIFLGELSLILNQGECSSPDIQNSVEEETTMLLENDSPSETIPEQTLLPDEFVSCLGIVNEELPSINTYFPQNILESHFNRISLLEK chain 2: LQCFCHLCTKDNFTCVTDGLCFVSVTETTDKVIHNSMCIAEIDLIPRDRPFVCAPSSKTGSVTTTYCCNQDHCNKIELPTTVKSSPGLGPVELAAVIAGPVCFVCISLMLMVYICHNRTVNRAARHLCPPLPTPCASSAIEFPGGKETWQWINPVDFQEEASLQEALVVEMSWDKGERTEPLEKTELPEGAPELALDTELSLEDGDRCKAKM	> 4
TGB23-3 fusion protein (TGFβ receptor and IL-23 receptor fusion protein) (receptor) chain 1: LQCFCHLCTKDNFTCVTDGLCFVSVTETTDKVIHNSMCIAEIDLIPRDRPFVCAPSSKTGSVTTTYCCNQDHCNKIELPTTVKSSPGLGPVELAAVIAGPVCFVCISLMLMVYICHNRTVNRAARHLCPPLPTPCASSAIEFPGGKETWQWINPVDFQEEASLQEALVVEMSWDKGERTEPLEKTELPEGAPELALDTELSLEDGDRCKAKM chain 2: TIPPHVQKSVNNDMIVTDNNGAVKFPQLCKFCDVRFSTCDNQKSCMSNCSITSICEKPQEVCVAVWRKNDENITLETVCHDPKLPYHDFILEDAASPKCIMKEKKKPGETFFMCSCSSDECNDNIIFSEEYNTSNPDLLLVIFQVTGISLLPPLGVAISVIIIFYCYRVNRQNRSFRTGIKRRILLLIPKWLYEDIPNMKNSNVVKMLQENSELMNNNSSEQVLYVDPMITEIKEIFIPEHKPTDYKKENTGPLETRDYPQNSLFDNTTVVYIPDLNTGYKPQISNFLPEGSHLSNNNEITSLTLKPPVDSLDSGNNPRLQKHPNFAFSVSSVNSLSNTIFLGELSLILNQGECSSPDIQNSVEEETTMLLENDSPSETIPEQTLLPDEFVSCLGIVNEELPSINTYFPQNILESHFNRISLLEK	> 4
TGB23-4 fusion protein (TGFβ receptor and IL-23 receptor fusion protein) (receptor) chain 1: LQCFCHLCTKDNFTCVTDGLCFVSVTETTDKVIHNSMCIAEIDLIPRDRPFVCAPSSKTGSVTTTYCCNQDHCNKIELPTTVKSSPGLGPVELVPQVTSKAFQHDTWNSGLTVASISTGHLTSDNRGDIGLLLGMIVFAVMLSILSLIGIFNRSFRTGIKRRILLLIPKWLYEDIPNMKNSNVVKMLQENSELMNNNSSEQVLYVDPMITEIKEIFIPEHKPTDYKKENTGPLETRDYPQNSLFDNTTVVYIPDLNTGYKPQISNFLPEGSHLSNNNEITSLTLKPPVDSLDSGNNPRLQKHPNFAFSVSSVNSLSNTIFLGELSLILNQGECSSPDIQNSVEEETTMLLENDSPSETIPEQTLLPDEFVSCLGIVNEELPSINTYFPQNILESHFNRISLLEK chain 2: TIPPHVQKSVNNDMIVTDNNGAVKFPQLCKFCDVRFSTCDNQKSCMSNCSITSICEKPQEVCVAVWRKNDENITLETVCHDPKLPYHDFILEDAASPKCIMKEKKKPGETFFMCSCSSDECNDNIIFSEEYNTSNPDLLLVIFQVSDWLIFFASLGSFLSILLVGVLGYLGLNRAARHLCPPLPTPCASSAIEFPGGKETWQWINPVDFQEEASLQEALVVEMSWDKGERTEPLEKTELPEGAPELALDTELSLEDGDRCKAKM	> 4
